Here are results for eleven molecules from patent US20080267953A1 (Kyowa Kirin, published 2008).

Test [1] deals with T1, polypeptide encoded by the human PERP gene, endogenously expressed on human cancer cell lines (PC9 / PC-9, … (human, UniProt Q96FX8 1-193)).
T1 construct: Four-transmembrane protein of 193 amino acids; also called hPERP; THW
In words: flow cytometry on PC9 cells expressing PERP. In general terms: A flow cytometer gives signals particle by particle.

Test [2] addresses T1, polypeptide encoded by the human PERP …. In words: flow cytometry on Colo 205 cells.
Test [3] has as its target T2, human PERP with C-terminal myc-His tag expressed on CHO/DG44 cells from plasmid pcPERPmH (human, UniProt Q96FX8 1-193).
T2 construct: The gene was cloned from plasmid HEMBA 1006335 (GenBank AK 074585); also called PERP/CHO cell; CHO/hPERP
In words: FMAT fluorescent cell staining, hybridoma culture supernatant, PERP/CHO against CHO/DG44 cells. Here is the method:
With regard to the cells for the assay, PERP/CHO cells and CHO/DG44 cells produced in (1) of Reference Example 1 were used. The cells which were cultured on an Iscove's Modified Dulbecco's medium containing 10% fetal bovine serum (manufactured by Invitrogen) for 2 to 3 days and peeled off with a Tripsin-EDTA solution (manufactured by Invitrogen) were suspended on the same medium, seeded onto a black 96-well plates for FMAT at 7×10³ cells/100 μL medium/well and cultured overnight. Mouse anti-serum to be immunized or cultured supernatant of hybridoma cells was dispensed into the plate at 5 μL/well as a primary antibody, and ALEXA 647-labeled anti-mouse immunoglobulin G (H+ L) (manufactured by Molecular Probe) was dispensed at 50 μL/well as a secondary antibody, and the plate was allowed to stand for 4 hours under shading the light. Wavelength of 650 to 685 nm excited by laser beam of 633 nm He/Ne was measured by an FMAT 8100 HTS system (manufactured by Applied Biosystem).

For test [4], the target named is T1, polypeptide encoded by the human PERP …. In words: flow cytometry on PC-9 cells. As to the method:
(§1) Binding activity of an anti-PERP humanized antibody having no consensus sequence of an N-linked sugar chain purified in (5) of Example 3 to CHO/PERP (KC1359) expressing a polypeptide encoded by the PERP gene, or PC9 cells used in (1) of Example 1 was measured using a fluorescent antibody technique as described below.
CHO/PERP or PC9 cells (2 to 3×10⁵ per well) were dispensed in a 96-well U-shaped plate, a modified antibody wherein the anti-PERP humanized antibody having no consensus sequence of an N-linked sugar chain was diluted in eight stages in a 2-fold dilution starting from 10 μg/ml using a buffer for FCM (1% BSA-PBS, 0.02% EDTA and 0.05% NaN₃) was dispensed in an amount of 100 μL/well or the modified antibody diluted in eight stages in a 5-fold dilution starting from 10 μg/ml and a reaction was carried out on ice for 30 minutes. After washing with a buffer for FCM once, a solution in which a PE-labeled anti-human IgG (H+ L) antibody (manufactured by Beckmann-Coulter) diluted 50-fold with a buffer for FCM was added thereto in an amount of 100 μL/well. After the mixture was allowed to react for 30 minutes on ice protecting from the light, it was washed with a buffer for FCM twice and fluorescence intensity was measured using a flow cytometer. […]

Test [5] has as its target T2, human PERP with C-terminal myc-His tag …. In words: flow cytometry on CHO/PERP (KC1359). Here is the method:
as §1
CHO/PERP or PC9 cells (2 to 3×10⁵ per well) were dispensed in a 96-well U-shaped plate, a modified antibody wherein the anti-PERP humanized antibody having no consensus sequence of an N-linked sugar chain was diluted in eight stages in a 2-fold dilution starting from 10 μg/ml using a buffer for FCM (1% BSA-PBS, 0.02% EDTA and 0.05% NaN₃) was dispensed in an amount of 100 μL/well or the modified antibody diluted in eight stages in a 5-fold dilution starting from 10 μg/ml and a reaction was carried out on ice for 30 minutes. After washing with a buffer for FCM once, a solution in which a PE-labeled anti-human IgG (H+ L) antibody (manufactured by Beckmann-Coulter) diluted 50-fold with a buffer for FCM was added thereto in an amount of 100 μL/well. After the mixture was allowed to react for 30 minutes on ice protecting from the light, it was washed with a buffer for FCM twice and fluorescence intensity was measured using a flow cytometer. As a positive control, the anti-PERP human chimeric antibody KM3481 described in Reference Example 2 or the anti-PERP human chimeric antibody KM3821 (KM3821) having no consensus sequence of an N-linked sugar chain produced in Example 1 was used.

B1: anti-PERP CDR-modified antibody ver.1 (antibody, V domains shown)
VH: DVQLQESGPGLVKPSQSLSLTCTVTGFSITTEYAWNWIRQFPGNRLEWMGYIGYTGRTSYSPSLKSRISITRDTSKNQFFLQLNSVTTEDTATYYCTRMDYWGQGTSVTVSS
VL: QIVLIQSPVIMSASPGEKVTITCSASSSVSYMHWFQQKPGTSPKLWIYSTSNLASGVPARFSGSGSGTSYSLTISRMEAEDAATYYCQQRSSYPPTFGAGTKLELK
notes: Human chimeric antibody of IgG class; also called pKANTEX3411 CDR v1
B1: the binding result in test [1] is given as “binds”.

B2: anti-PERP CDR-modified antibody ver.3 (antibody, V domains shown)
VH: DVQLQESGPGLVKPSQSLSLTCTVTGFSITTEYAWNWIRQFPGNRLEWMGYIGYTGRTYYSPSLKSRISITRDTSKNQFFLQLNSVTTEDTATYYCTRMDYWGQGTSVTVSS
VL: QIVLIQSPVIMSASPGEKVTITCSASSSVSYMHWFQQKPGTSPKLWIYSTSNLASGVPARFSGSGSGTSYSLTISRMEAEDAATYYCQQRSSYPPTFGAGTKLELK
notes: Human chimeric antibody of IgG class; also called pKANTEX3411 CDR v3
Consider B2, for which, in test [1], the binding result is listed as “binds”.

B3: anti-PERP CDR-modified antibody ver.6 (antibody, V domains shown)
VH: DVQLQESGPGLVKPSQSLSLTCTVTGFSITTEYAWNWIRQFPGNRLEWMGYIGYTGRTGYAPSLKSRISITRDTSKNQFFLQLNSVTTEDTATYYCTRMDYWGQGTSVTVSS
VL: QIVLIQSPVIMSASPGEKVTITCSASSSVSYMHWFQQKPGTSPKLWIYSTSNLASGVPARFSGSGSGTSYSLTISRMEAEDAATYYCQQRSSYPPTFGAGTKLELK
notes: Human chimeric antibody of IgG class; also called pKANTEX3411 CDR v6
As to B3, the binding result in test [1] is “binds”.

B4: anti-PERP CDR-modified antibody ver.2 (antibody, V domains shown)
VH: DVQLQESGPGLVKPSQSLSLTCTVTGFSITTEYAWNWIRQFPGNRLEWMGYIGYTGRTGYSPSLKSRISITRDTSKNQFFLQLNSVTTEDTATYYCTRMDYWGQGTSVTVSS
VL: QIVLIQSPVIMSASPGEKVTITCSASSSVSYMHWFQQKPGTSPKLWIYSTSNLASGVPARFSGSGSGTSYSLTISRMEAEDAATYYCQQRSSYPPTFGAGTKLELK
notes: Human chimeric antibody of IgG class; also called pKANTEX3411 CDR v2
B4: in test [1], the binding result is listed as “binds”.

B5: anti-PERP mouse monoclonal antibody KM3411 (hybridoma FERM BP-8643) (antibody, V domains shown)
VH: DVQLQESGPGLVKPSQSLSLTCTVTGFSITTEYAWNWIRQFPGNRLEWMGYIGYTGRTNYSPSLKSRISITRDTSKNQFFLQLNSVTTEDTATYYCTRMDYWGQGTSVTVSS
VL: QIVLIQSPVIMSASPGEKVTITCSASSSVSYMHWFQQKPGTSPKLWIYSTSNLASGVPARFSGSGSGTSYSLTISRMEAEDAATYYCQQRSSYPPTFGAGTKLELK
notes: Mouse IgG1; also called anti-PERP mouse antibody KM3411
For B5, the binding result in test [2] and in test [3] was “binds” throughout.

B6: anti-PERP CDR-modified antibody ver.5 (antibody, V domains shown)
VH: DVQLQESGPGLVKPSQSLSLTCTVTGFSITTEYAWNWIRQFPGNRLEWMGYIGYTGRTSYAPSLKSRISITRDTSKNQFFLQLNSVTTEDTATYYCTRMDYWGQGTSVTVSS
VL: QIVLIQSPVIMSASPGEKVTITCSASSSVSYMHWFQQKPGTSPKLWIYSTSNLASGVPARFSGSGSGTSYSLTISRMEAEDAATYYCQQRSSYPPTFGAGTKLELK
notes: Human chimeric antibody of IgG class; also called pKANTEX3411 CDR v5
In the case of B6, the binding result in test [1] is recorded as “binds”.

B7: anti-PERP humanized antibody HV4LV4 (antibody, V domains shown)
VH: QVQLQESGPGLVKPSQTLSLTCTVSGFSISTEYAWNWIRQFPGKGLEWIGYIGYTGRTNYAPSLKSRITISRDTSKNQFSLQLSSVTAEDTATYYCTRMDYWGQGTLVTVSS
VL: DIQMTQSPSSLSASVGDRVTITCSASSSVSYMHWFQQKPGKAPKLWIYSTSNLASGVPSRFSGSGSGTDYTLTISSMQPEDFATYYCQQRSSYPPTFGQGTKVEIK
Regarding B7, the binding result in test [4] and in test [5] was “binds” each time.

B8: anti-PERP humanized antibody HV8LV7 (antibody, V domains shown)
VH: QVQLQESGPGLVKPSQTLSLTCTVSGFSITTEYAWNWIRQFPGNRLEWMGYIGYTGRTNYAPSLKSRITISRDTSKNQFSLQLSSVTAEDTATYYCTRMDYWGQGTLVTVSS
VL: DIVMIQSPSSLSASVGDRVTITCSASSSVSYMHWFQQKPGKSPKLWIYSTSNLASGVPSRFSGSGSGTDYTLTISSMQPEDFATYYCQQRSSYPPTFGQGTKVEIK
For B8, the binding result in test [5] is on record as “binds”.

B9: anti-PERP humanized antibody HV4LV7 (antibody, V domains shown)
VH: QVQLQESGPGLVKPSQTLSLTCTVSGFSISTEYAWNWIRQFPGKGLEWIGYIGYTGRTNYAPSLKSRITISRDTSKNQFSLQLSSVTAEDTATYYCTRMDYWGQGTLVTVSS
VL: DIVMIQSPSSLSASVGDRVTITCSASSSVSYMHWFQQKPGKSPKLWIYSTSNLASGVPSRFSGSGSGTDYTLTISSMQPEDFATYYCQQRSSYPPTFGQGTKVEIK
In the case of B9, the binding result in test [5] is on record as “binds”.

B10: anti-PERP humanized antibody HV8LV0 (antibody, V domains shown)
VH: QVQLQESGPGLVKPSQTLSLTCTVSGFSITTEYAWNWIRQFPGNRLEWMGYIGYTGRTNYAPSLKSRITISRDTSKNQFSLQLSSVTAEDTATYYCTRMDYWGQGTLVTVSS
VL: DIQMTQSPSSLSASVGDRVTITCSASSSVSYMHWYQQKPGKAPKLLIYSTSNLASGVPSRFSGSGSGTDFTLTISSLQPEDFATYYCQQRSSYPPTFGQGTKVEIK
Turning to B10, the “binding activity relative to KM3821” value in test [5] was ~0.2 fraction of the binding activity of KM3821.

B11: anti-PERP humanized antibody HV4LV3 (antibody, V domains shown)
VH: QVQLQESGPGLVKPSQTLSLTCTVSGFSISTEYAWNWIRQFPGKGLEWIGYIGYTGRTNYAPSLKSRITISRDTSKNQFSLQLSSVTAEDTATYYCTRMDYWGQGTLVTVSS
VL: DIQMTQSPSSLSASVGDRVTITCSASSSVSYMHWYQQKPGKAPKLWIYSTSNLASGVPSRFSGSGSGTDYTLTISSMQPEDFATYYCQQRSSYPPTFGQGTKVEIK
For the molecule B11, the binding result in test [5] was “binds”.
